Experiment [1] has as its target human growth hormone receptor on IM-9 cells (human) (UniProt P10912). The experiment can be described thus: cell-based or functional assay.
In experiment [2] the target is T1, full length rat GHR (L43R) on BAF3 cells (rat) (UniProt P16310).
T1 sequence (looked up): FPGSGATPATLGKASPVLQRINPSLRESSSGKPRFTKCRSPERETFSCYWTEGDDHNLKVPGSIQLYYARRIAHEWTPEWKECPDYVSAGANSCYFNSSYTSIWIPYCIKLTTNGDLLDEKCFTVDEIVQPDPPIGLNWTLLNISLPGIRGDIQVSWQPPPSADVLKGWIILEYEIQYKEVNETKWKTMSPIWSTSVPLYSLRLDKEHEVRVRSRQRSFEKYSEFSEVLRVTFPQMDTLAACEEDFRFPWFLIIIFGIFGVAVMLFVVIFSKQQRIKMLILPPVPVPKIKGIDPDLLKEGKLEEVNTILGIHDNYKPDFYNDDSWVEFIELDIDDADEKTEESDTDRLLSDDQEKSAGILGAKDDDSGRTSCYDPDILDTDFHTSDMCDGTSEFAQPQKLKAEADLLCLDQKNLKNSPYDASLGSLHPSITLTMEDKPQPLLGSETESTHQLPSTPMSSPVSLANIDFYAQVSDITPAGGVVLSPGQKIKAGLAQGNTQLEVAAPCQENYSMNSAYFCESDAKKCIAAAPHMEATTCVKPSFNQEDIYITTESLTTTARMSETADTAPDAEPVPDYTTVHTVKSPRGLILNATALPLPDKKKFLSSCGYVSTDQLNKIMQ
The experiment can be described thus: cell-based or functional assay.

UniProt P10912, sequence (P10912 19-638): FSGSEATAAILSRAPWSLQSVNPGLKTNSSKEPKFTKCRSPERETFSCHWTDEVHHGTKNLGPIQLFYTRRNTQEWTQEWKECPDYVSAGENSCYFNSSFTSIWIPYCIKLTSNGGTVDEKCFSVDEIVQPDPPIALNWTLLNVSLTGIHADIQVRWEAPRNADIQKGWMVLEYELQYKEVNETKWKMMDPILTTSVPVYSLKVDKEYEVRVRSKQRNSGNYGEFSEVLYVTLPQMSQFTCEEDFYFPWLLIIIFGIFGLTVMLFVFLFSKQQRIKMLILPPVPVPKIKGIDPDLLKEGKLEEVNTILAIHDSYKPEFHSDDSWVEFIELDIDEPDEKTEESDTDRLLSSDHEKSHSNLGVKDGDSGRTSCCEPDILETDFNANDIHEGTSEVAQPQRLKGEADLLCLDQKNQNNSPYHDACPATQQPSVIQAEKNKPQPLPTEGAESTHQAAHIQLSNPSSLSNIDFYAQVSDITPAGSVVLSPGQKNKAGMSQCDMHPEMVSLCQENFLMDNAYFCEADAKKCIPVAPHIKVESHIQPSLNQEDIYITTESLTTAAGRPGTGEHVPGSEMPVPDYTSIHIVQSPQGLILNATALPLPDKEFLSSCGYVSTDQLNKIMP

As to “Y35pAF-40KPEG (from UniProt P01241 27-217) (ligand)”, the pSTAT5 EC50 (IM-9), WHO hGH expressed as unity (relative, WHO hGH = 1 (head prints nM)) in experiment [1] is 53.3. The same substance yielded a Proliferation EC50 (BrdU), WHO hGH expressed as unity (relative, WHO hGH = 1 (head prints nM)) in experiment [2] of 24. Regarding “R134pAF-20KPEG (from UniProt P01241 27-217) (ligand)”, the pSTAT5 EC50 (IM-9), WHO hGH expressed as unity (relative, WHO hGH = 1 (head prints nM)) in experiment [1] is 5.3. With “G131pAF-30KPEG (from UniProt P01241 27-217) (ligand)”, the pSTAT5 EC50 (IM-9), WHO hGH expressed as unity (relative, WHO hGH = 1 (head prints nM)) in experiment [1] stood at 23.8. The Proliferation EC50 (BrdU), WHO hGH expressed as unity (relative, WHO hGH = 1 (head prints nM)) in experiment [2] turned out to be 4.6. Turning to “K145pAF-30KPEG (from UniProt P01241 27-217) (ligand)”, the pSTAT5 EC50 (IM-9), WHO hGH expressed as unity (relative, WHO hGH = 1 (head prints nM)) in experiment [1] worked out at 20.6. The same substance yielded a Proliferation EC50 (BrdU), WHO hGH expressed as unity (relative, WHO hGH = 1 (head prints nM)) in experiment [2] of 5.3. The matching figures for “Y143pAF-30KPEG (from UniProt P01241 27-217) (ligand)”: 12.3 and 6.6.

(Values after US20120149636A1.)
